± gives the uncertainty stated by the source.

The data set in a line: amyloid nucleation score (Sup35N fusion, yeast selection) (log enrichment); library NNK1; higher = more nucleation; inactive = no reads after selection. The method, boiled down: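 On medium lacking adenine and uracil, psi-negative yeast expressing peptides of 20 random codons fused to Sup35N were grown 7 days at 30°C after a 24-hour induction with 100 μM copper sulfate. Illumina sequencing of input and output plasmid inserts gave the reads, and sequences under 100 input reads were excluded. The nucleation score is the DiMSum log enrichment of output over input reads, centred on the mode score of non-aggregating sequences.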
Regarding CRLCLRKHLSVISSSAEYLP, the amyloid nucleation score result was “inactive”. KWVWDLMMVDSGLRLSSHVL: the amyloid nucleation score was 0.026 ± 0.35.

In turn, RHISAAEPQSVESMIAKGN yielded an amyloid nucleation score of -0.054 ± 0.98.

Substance RFFRISWIFMSDSRPTRSDF had an amyloid nucleation score of 0.793 ± 0.84. Then KIILPVSGVKINMQAWSRSH, with 4.07 ± 0.091; and VQWLHDMLVHFN, with -0.022 ± 1; and MISDFSNVIMLVCIPCFLYV, with 5.13 ± 0.067. Then SRYYASMYLGNYGWHVLLNW, with -0.103 ± 0.23; and EVSHT, with 0.428 ± 0.25. As for LVDWVYGWGVVVFAMSQGSE, the figure is 0.125 ± 1.4; as for ISNVWNCGKFRSLGLFVTGQ, 0.247 ± 0.31. Substance HPSVGYSSLVV gave an amyloid nucleation score of 0.841 ± 0.62. As for YLSHWQFAFIHLNANILL, the figure is 0.596 ± 1.2; as for ASFASKARHKR, 0.728 ± 0.87; as for NLSSYGR, 0.798 ± 0.23. Then LYTCCSTYVCSNLGRNVK, with 7.074 ± 0.06. Then FINLASVVSIVVLVT, with 4.24 ± 0.076.

On to DNGLGRRWARAKYKECRKAR, for which the amyloid nucleation score came out at 0.141 ± 0.27.

With RGRVSNY, the amyloid nucleation score is -0.455 ± 1.4. As for FYTVSCLVCLGL, the figure is 8.507 ± 0.047.

In turn, SVIRVLWKGYGTRN came in with an amyloid nucleation score of -1.55 ± 1.4. Then LYHWYLRR, with “inactive”; and SSYSRCTFKAFKLGSVRVQV, with 0.924 ± 0.7. Then IYRSHRMPKSTRTLV, with -1.16 ± 1.9; and RCRYVRLETSLC, with -0.083 ± 0.47; and PDRDYFLFFTLHCVCSSFAE, with “inactive”. As to SFYQAYYVACCKYNVEY, the amyloid nucleation score was found to be 5.96 ± 0.063. TWRFVFCFFWTRGPRLLICA had an amyloid nucleation score of -0.768 ± 0.37.

As to CRYSACAKRMSSFCRVRMCL, the amyloid nucleation score was determined as 0.194 ± 0.66. Then IVTEVGGVVDEYARWPVGMT, with 8.737 ± 0.05. Then RSCGQFLSWSACPFVSLRRR, with 0.274 ± 0.46; and IWALKVWLRLTYCHICFRVV, with 0.265 ± 0.58; and ANLKISSALDVVRHRRKYQY, with 0.014 ± 0.54.

CFGRRRVRIELGTAWPFSVL: the amyloid nucleation score was -0.754 ± 1.1. Then PVFGETGDY, with -0.393 ± 0.4; and CSFLRFQIVMCCRLLDRVLC, with 1.72 ± 0.63. As for LLKRRTREIAALYRHSSNGY, the figure is 1.26 ± 0.57; as for HRSSNVSGLVWSFHRMKYVI, 0.599 ± 0.79. Consider QIFLWFGISNKDFLHFVSWS, for which the amyloid nucleation score stood at 0.158 ± 0.57. For DCIACRECSMTSKLLGGLGT, the amyloid nucleation score came to 0.859 ± 0.39. Then YYNNC, with 0.501 ± 0.39; and RGFADLCAFEDMCIRFDESL, with 0.878 ± 0.64.

For the substance RVCVFIN, the amyloid nucleation score result was “inactive”.

Substance MPLSILQLKTRFFKPSNDSR displayed an amyloid nucleation score of 5.42 ± 0.11. Then PLEVWNRGVGPIGCVCRGLK, with 1.29 ± 0.57; and RTRAGKYMYVSSQPTCSILI, with 0.312 ± 0.56; and NVDFLISQSRIFYIERLSSQ, with 2.77 ± 0.16.

Take LYVVSSVFLGEPVRKQVYQI: the amyloid nucleation score was -0.678 ± 0.96. Then PLVGWSRYSGAIPTSVMFLA, with 4.21 ± 0.071; and TLCERGPPMMYCKC, with -0.526 ± 0.45; and SGFIEVYVTIRFEFLYFHTP, with 0.131 ± 0.18.

The substance MLHHLSYVAVRWCKRTRKLC returned an amyloid nucleation score of 0.405 ± 0.71. In turn, VRSWVLVLQSMCGLLSGGYG showed an amyloid nucleation score of -0.802 ± 0.96. Then ISIPYICIMVFFFDAVRVDQ, with 0.49 ± 0.34; and SDLLCLLVKDIIYFFVYLHS, with 1.96 ± 0.53; and LCSDIG, with -0.09 ± 0.4. As for TWNTL, the figure is -0.343 ± 0.4; as for ATPMFNVPVHRCVKKV, -0.206 ± 0.46; as for HKTFGCCLDLWHIMPHFIIL, -0.396 ± 0.37.

ITMWMPRILRVTITYDTRG registered an amyloid nucleation score of 0.111 ± 1.2. Then LYNVSSLGSANKSFLGRSS, with 1.39 ± 0.76. As for ERIIRKAC, the figure is 0.338 ± 1.4; as for VRMIT, 0.388 ± 0.64; as for LMVNYRLRLYFFVLDSCDGE, -0.348 ± 0.28.

In turn, NSNARAGVLDLPSCRTVVIE returned an amyloid nucleation score of 0.68 ± 0.65. Substance LVFGILHGCFEVVSGMLRVD displayed an amyloid nucleation score of -0.801 ± 0.65. Substance SGKGMPNMNIPFHMWYQICY showed an amyloid nucleation score of 0.001 ± 0.33. Then KKDTDRSIVFVSLYSPDSKA, with -0.064 ± 0.5; and VLTFPLFCIGKLIKN, with 6.033 ± 0.045; and LCDFLNAYEINGKFSCGGTR, with 0.084 ± 0.38. As for RFCGVMESERTVIRKCREVG, the figure is 0.095 ± 0.42; as for NNKKNY, -0.505 ± 0.27; as for MEWLYRNTATFCR, -0.657 ± 1.7. Consider TGKGSSEHLRSNMNHRLYCA, for which the amyloid nucleation score amounted to 0.85 ± 0.43. KHRLGQSMVSVRHYRFWGRI displayed an amyloid nucleation score of -0.437 ± 0.57. As for WNYPYIFVGGPKKIGGGRRG, the figure is 0.584 ± 0.58.

VSYMQSVVHCGPKARCKWRC: the amyloid nucleation score came out at 0.964 ± 0.67. Then FKCRACMLYDVYIAERWVTG, with -0.022 ± 0.37. Then QDITPYWIVIGYD, with -0.367 ± 0.29; and ILSNTRSVFYSSN, with -0.089 ± 0.38. Substance LVFVSFIW showed an amyloid nucleation score of 0.942 ± 0.17. Then VEVATPLTGSLQLPASYIMP, with “inactive”; and RSCGMTVGACSYVACVSYCT, with 6.02 ± 0.066.

Regarding SSKIRLFRDNTQYNGRWGSY, the amyloid nucleation score entry was “inactive”. Then RVRTPHNWTWGITCTWVFKF, with 0.326 ± 0.51; and NFPFMFKCSPGNVHLVDIR, with -0.535 ± 1.7. As for AQAVLQLETRTIKIYRDGPK, the figure is -1.08 ± 2.7.

As to FNKVSAMDEAREYGVEVVAV, the amyloid nucleation score was determined as 5.46 ± 0.073. As for IMVVFGITCVPASGNFLQGW, the entry is “inactive”. Then RKVGVGKYLSHFECANRIWL, with 0.3 ± 0.33; and PVSSLNYLVDT, with 0.395 ± 0.62; and ILSSFILVANCWILFHPLFW, with -0.411 ± 0.52. On to TWCTV, for which the amyloid nucleation score worked out at 0.082 ± 0.28. As for FQRTGQKMWNNKKCSGRQHD, the figure is -0.648 ± 0.51.

DSVLQDTLIMWCSMKTVSPS: the amyloid nucleation score was -0.075 ± 0.29.

Regarding MIPDINIFQIIMVTHKLFRY, the amyloid nucleation score was 3.71 ± 0.14. The substance QISVKTMLLSLTFRMFIYWN had an amyloid nucleation score of -0.168 ± 0.38.

Regarding CVWFFLFPVQAITLFDLESV, the amyloid nucleation score was -0.033 ± 0.74. Then DQRVDR, with 0.107 ± 0.89. Then YCSQPSAWSLRLNRSCPHNM, with -0.593 ± 1.1; and QLGWYLFGM, with 0.729 ± 0.4. As for PTFNSAQTRSISYIKTDYLE, the entry is “inactive”; as for NPNFDRGQRSLQLDIMVKWR, 1.97 ± 0.19; as for GWTLPNRRLWHFFMTIT, 0.654 ± 0.45. FTVVISSLNEGEEHRVWCKF had an amyloid nucleation score of -0.444 ± 1.2. Then SVWCSFFVNAADHNIYRTIT, with 1.11 ± 0.15; and MAPEFCIEDKIRVVPFLIPI, with 0.197 ± 0.89; and MKVRISEILEILKVSFKNFP, with -1.21 ± 1.4. As for IDSKFQPK, the figure is 0.972 ± 0.84. As for YEMVRGCLNMSMMTDKFRAE, the figure is 0.851 ± 0.67; as for APEVNRLTCSYRSDRLKTS, 0.095 ± 0.83; as for ADCGRSVLTKVKRCDTFFSG, 0.023 ± 0.27.

Regarding NNIVLDFLFGVSLHRFGPHH, the amyloid nucleation score was 4.43 ± 0.14. As for EASTYHFSCGRANVTDELGT, the figure is 0.882 ± 0.53; as for SKVSVCNPSSLGSRVGGLAN, “inactive”; as for VGAFVSRVSLLDADGLLLGS, -0.09 ± 0.61. For LFDARDSRFSCRYVMRRVWV, the amyloid nucleation score was 0.195 ± 0.25. As for VSVFCTSFWASTKLYWTVSE, the figure is -0.351 ± 0.6.

Substance AGHYLCGSITNLTA gave an amyloid nucleation score of 0.721 ± 0.97.

For DAVSGGVFNCVLFNKVLSLM, the amyloid nucleation score was -0.597 ± 0.32. For DDLTVMVGPYMGGS, the amyloid nucleation score is -0.82 ± 1.1. As for AFRTS, the figure is -0.203 ± 0.43. As for YYETLLNKDILDMWEYR, the figure is -0.393 ± 0.55; as for LHRALYLDRQLISWGTVSQM, -0.332 ± 0.42; as for NRNVYRSGVFGSGVWTRVER, 0.15 ± 0.45. Then ETRYPPRVNSVYTVWPMYLL, with 0.464 ± 0.43; and LVMSTRLQTCCWLNVNVGWV, with 6.04 ± 0.069; and TLTPTILILFNFIT, with 4.68 ± 0.052. Turning to EHSPRRGAL, the amyloid nucleation score was found to be 0.063 ± 0.66. With AYNVVHSSLGTKGVRGSCAT, the amyloid nucleation score is -0.74 ± 1.7. Then SCFVSSSAIPWVIHSKFDLG, with 0.143 ± 0.55.

For SATNCRTGKDCRERGHTLGL, the amyloid nucleation score came out at 0.628 ± 0.33. Regarding ACLSNGKWKYPLGYESSLRR, the amyloid nucleation score was -0.968 ± 1.1. As for YCVKV, the figure is 0.308 ± 0.62. As for DCKAYSIRSNV, the figure is 0.705 ± 0.36; as for VSLNASPL, 0.902 ± 0.57. As for QIHFFAFRFIGMVYFPRIGD, the figure is 0.318 ± 0.79; as for WTVSWHIVGYSRVDVMKRTK, “inactive”; as for RWTVLRIWIYEVQKIAARRS, 0.098 ± 0.44.
